Assay results published in FireProtDB (doi:10.1016/s0014-5793(98)01666-4).
Where “and” joins values, the source holds several entries; their conditions need not be identical. Equal entries are not always repeated.

Conditions: Rattus norvegicus, pH 7.4, Thermal, DSC, EDTA 10 mM, NaCl 0.20 M, transition: 2, reversible: yes, whole UniProt chain shown

B1: Parvalbumin alpha wild type, P02625 (protein)
chain: MSMTDLLSAEDIKKAIGAFTAADSFDHKKFFQMVGLKKKSADDVKKVFHILDKDKSGFIEEDELGSILKGFSSDARDLSAKETKTLMAAGDKDGDGKIGVEEFSTLVAES
unfolding enthalpy (calorimetric) (25 °C): 70 kcal/mol and 75 kcal/mol
unfolding enthalpy (van 't Hoff) (25 °C): 71 kcal/mol and 74 kcal/mol
unfolding free energy (25 °C): 3.5 kcal/mol and 4.7 kcal/mol
Tm: 53.6 °C
unfolding enthalpy (calorimetric): 75 kcal/mol
unfolding enthalpy (van 't Hoff): 74 kcal/mol
